Test results from patent US20090275124A1 (DYAX, published 2009).

Molecular target: T1, DX-2400
T1 construct: Only the variable domains are printed (joined from rows r3-r12 and r17-r26); It was biotinylated for phage selection; also called DX-2400 IgG; fully human monoclonal anti-MMP-14 antibody
Experiment: phage display selection and ELISA screening
From the text: Anti-idiotypic Fabs for DX-2400 were generated by phage selection and screenings using DX-2400 as a target. […] Forty nine were distinct as determined by DNA sequencing. These 49 unique clones were screened as phages and sFabs (soluble Fabs) in 5% pooled normal serum matrices (human, mouse, rat and cynomolgus monkey). Top 10 unique clones were ranked according to the following criteria: strong binding to DX-2400, weak binding to DX-2300, low-non specific binding to streptavidin and Fab control.

| Binder | binding result |
| --- | --- |
| 539C-R0010-C05 (Fab, V domains shown, A Fab from the phage display library with a kappa light chain; Only the starts of the constant regions are printed) VH: EVQLLESGGGLVQPGGSLRLSCAASGFTFSGYGMGWVRQAPGKGLEWVSYIVPSGGATDYADSVKGRFTISRDNSKNTLYLQMNSLRAEDTAVYYCARAYYYDSSGFDIWGQGTMVTVSS VL: DIQMTQSPSSLSASVGDRVTITCLPSQDISVYLNWYQQKPGEAPKLLISATSDLQSGVPSRFGGSGYGTDFSLTITSLQREDFATYYCQQSYSLPFTFGGGTRVEIK | binds |
| 539C-R0010-F05 (Fab, V domains shown, A Fab from the phage display library with a lambda light chain; Only the starts of the constant regions are printed) VH: EVQLLESGGGLVQPGGSLRLSCAASGFTFSWYAMVWVRQAPGKGLEWVSGISPSGGLTSYADSVKGRFTISRDNSKNTLYLQMNSLRAEDTAVYYCARKQMSPDYYYGMDVWGQGTTVTVSS VL: QSVLTQPPSVSVAPGQTATISCEGDNIGSKSVHWYQQRPGQAPVLVVYDDYDRPSGIPERFSGFNSGNTATLTIYRVEAGDEADFYCQVRDSRTEERVFGGGTKLTVL | binds |
| 539C-M0021-E01 (Fab, V domains shown, It was tested as Fab on phage and as soluble Fab) VH: EVQLLESGGGLVQPGGSLRLSCAASGFTFSVYPMIWVRQAPGKGLEWVSYISSSGGQTWYADSVKGRFTISRDNSKNTLYLQMNSLRAEDTATYYCARGDDYDSSGPDYWGQGTLVTVSS VL: DIQMTQSPSSLSASEGDRITLTCRASQSISIYLNWYQQKPGRAPKLLMYAATTLQSGVPSRFSGSGSGTDFTLTISGLRPEDFATYYCQQSYDIPLTFGGGTKVEIKR | binds |
| 539C-R0010-C06 (Fab, V domains shown, A Fab from the phage display library with a kappa light chain; Only the starts of the constant regions are printed) VH: EVQLLESGGGLVQPGGSLRLSCAASGFTFSSYNMAWVRQAPGKGLEWVSVIVPSGGLTGYADSVKGRFTISRDNSKNTLYLQMNSLRAEDTAVYYCARERGGFYSSGWYRYWFDPWGQGTLVTVSS VL: DIQMTQSPSSLSASVGDRVTITCRASQNINTFLNWYQQKPGKAPKLLIYGASSLQSGVPSRFSGSGSGTDFTLTISSLQPEDFATYYCQQSSDALVYNFGQGTKLEIK | binds |
| 539C-R0010-D06 (Fab, V domains shown, A Fab from the phage display library with a lambda light chain; Only the starts of the constant regions are printed (GQPKAAP)) VH: EVQLLESGGGLVQPGGSLRLSCAASGFTFSDYSMYWVRQAPGKGLEWVSYISSSGGNTEYADSVKGRFTISRDNSKNTLYLQMNSLRAEDTAMYYCATTPSIWLGDLLENGPYWGQGTLVTVSS VL: QYELTQPHSVSESPGKTVTISCTRSNGTIDNSFVQWYQQRPGSAPTTVIYEDTQRPSGVPDRFSGSIDSSSNSASLTISGLKTEDEADYYCQSYDSTNRGVFGGGTKLTVL | binds |
| 539C-R0010-E06 (Fab, V domains shown, A Fab from the phage display library with a lambda light chain; Only the starts of the constant regions are printed) VH: EVQLLESGGGLVQPGGSLRLSCAASGFTFSDYWMFWVRQAPGKGLEWVSGIGPSGGIISYADSVKGRFTISRDNSKNTLYLQMNSLRAEDTAVYYCAKYGDYVSGFDYWGQGTLVTVSS VL: QSALTQPASVSGSPGQSITISCTGTSSDVGGYKLVSWYQQHPGKVPKLIISEVSYRPSGVSNRFSGSKSGNAASLTISGLQAEDEADYYCSSYTSTSTWVFGGGTKLTVL | binds |
| 539C-R0010-F06 (Fab, V domains shown, A Fab from the phage display library with a kappa light chain; Only the starts of the constant regions are printed) VH: EVQLLESGGGLVQPGGSLRLSCAASGFTFSDYHMSWVRQAPGKGLEWVSGISSSGGETFYADSVKGRFTISRDNSKNTLYLQMNSLRAEDTAVYYCASGSHRDGYNLGYFDYWGQGTLVTVSS VL: DIQMTQSPASLSASVGDRVTITCQASRDIGEYLNWYQQKAGKPPKLLISDATTLETGVPSRFSGTGSGTEFLFTISSVEPEDFATYYCQQYDDLTWISFGPGTRLDVK | binds |
| 539C-R0004-G04 (Fab, V domains shown, A Fab from the phage display library with a lambda light chain; Only the starts of the constant regions are printed; The VL is built from the FR/CDR columns because the joined LV-AA print (r109-r111) reads ADYEC where LV-FR3 reads ADYFC) VH: EVQLLESGGGLVQPGGSLRLSCAASGFTFSDYDMHWVRQAPGKGLEWVSGISPSGGWTWYADSVKGRFTISRDNSKNTLYLQMNSLRAEDTAVYYCARDWYSSGLDYWGQGTLVTVSS VL: QYELTQPPSVSVAPGQTARIICGGNDIGSKGVHWYHQKAGQAPVLLVYDNTDRPSGIPERFSGSNSGNTAALTITRVEAGDEADYFCQVWDSTGEHAVFGGGTKLTVL | binds |
| 539C-R0010-B06 (Fab, V domains shown, A Fab from the phage display library with a kappa light chain; Only the starts of the constant regions are printed (RTVAAPS)) VH: EVQLLESGGGLVQPGGSLRLSCAASGFTFSEYQMNWVRQAPGKGLEWVSSIYSSGGGTAYADSVKGRFTISRDNSKNTLYLQMNSLRAEDTAVYYCAKDQGDGYNYGVGLDYWGQGTLVTVSS VL: not shown | binds |

Molecular target: T1, DX-2400
Experiment: phage ELISA
From the text: Three rounds of selection were done against biotinylated DX-2400 after depleting the library using biotinylated-DX-2300 IgG (control antibody that binds unrelated target) and biotinylated matched Vk Fab (371L-X002-A03) (isotype matched control) immobilized on streptavidin magnetic beads. […] Forty-nine unique phage clones which had distinct heavy chains were secondarily screened by phage ELISA and ranked for specific binding to DX-2400. Later 45 soluble Fabs were expressed, purified and screened for non-specific binding to 5% human, cyno, rat, and mouse serum antibodies by using Fab as capture reagent and detecting with alkaline phosphatase-conjugated mouse anti-human Fc gamma-specific antibody.

| Binder | binding result |
| --- | --- |
| 539C-M0016-E11 (Fab, V domains shown, It was tested as Fab on phage, as soluble Fab, and biotinylated in the ECL assay) VH: EVQLLESGGGLVQPGGSLRLSCAASGFTFSFYVMDWVRQAPGKGLEWVSGIGPSGGSTDYADSVKGRFTISRDNSKNTLYLQMNSLRAEDTAVYYCTRIRYDSSGYPTDAFDIWGQGTMVTVSS VL: DIQMTQSPATLSLSPGERATLSCRASQSVSSYLAWYQQKPGQAPRLLIYDASNRATGIPARFSGSGSGTDFTLTISSLEPEDFAVYYCQQRSNWPLTFGGGTKVEIKR | binds |
